Data as given in paper doi:10.1101/2025.02.16.638571 (bioRxiv, 2025).

T1: NiVM G head domain protein (residues 176-602) (Nipah virus, Malaysia strain (NiVM), UniProt Q9IH62 176-602)
T1 sequence: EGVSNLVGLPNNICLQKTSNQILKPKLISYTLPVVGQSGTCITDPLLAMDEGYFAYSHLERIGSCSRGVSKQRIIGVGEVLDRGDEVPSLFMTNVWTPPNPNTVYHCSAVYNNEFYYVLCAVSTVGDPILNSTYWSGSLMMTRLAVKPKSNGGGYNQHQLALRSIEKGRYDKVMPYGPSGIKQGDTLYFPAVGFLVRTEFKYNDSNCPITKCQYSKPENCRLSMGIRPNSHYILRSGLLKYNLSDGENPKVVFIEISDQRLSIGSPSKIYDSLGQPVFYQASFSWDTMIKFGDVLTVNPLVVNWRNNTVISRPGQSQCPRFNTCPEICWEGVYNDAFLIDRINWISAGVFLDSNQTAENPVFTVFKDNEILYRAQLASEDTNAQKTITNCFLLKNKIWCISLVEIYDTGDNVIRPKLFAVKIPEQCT


Assays:
[1] = molecular target: deglycosylated NiVM G head domain without the His-tag (residues 176-602) (Nipah virus, Malaysia strain, …, UniProt Q9IH62); assay: crystal structure
[2] = molecular target: NiVM G ectodomain (residues 96-602) (Nipah virus, Malaysia strain, …, UniProt Q9IH62); assay: ELISA
[3] = molecular target: MojV G head domain (residues 176-625) (Mojiang virus, GenBank YP_009094095.1, UniProt W8TIR7); assay: ELISA
[4] = molecular target: LayV G head domain (residues 176-625) (Langya virus, GenBank UUV47206.1, UniProt A0AAX3C924); assay: ELISA
[5] = molecular target: T2, NiVM G head domain protein (residues 176-602) (Nipah virus, Malaysia strain (NiVM), UniProt Q9IH62); assay: BLI
[6] = molecular target: T2, NiVM G head domain protein (residues …); assay: cryo-EM structure
[7] = molecular target: T1, NiVM G head domain protein (residues …); assay: BLI

| Binder | binding result [2] | binding result [3] | binding result [4] | binding result [5] | binding result [6] | further results |
| --- | --- | --- | --- | --- | --- | --- |
| LN1F9 Fab (Fab, V domains shown) VH: EVKLVESGGGLVKPGGSLKLSCAASGFSFRNYAMSWVRQSPEKRLEWVAEVSSGGGYTYYPDTVTGRFTISRDNAKNILYLEMSSLRSEDTAMYYCTRDPDSSGYLAWFAYWGQGTLVTVSA VL: DILLTQSPASLSASVGETVTITCRASENINSYLAWYQQKQGKSPQLLVYNAKTLAEGVPSRFSGSGSDTQFSLKINTLQPEDFGTYYCQHHSGTPYTFGGGTKLEIK |  |  |  |  |  | binding result [1]: binds |
| mAb LN1F9 (antibody, V domains shown) VH: EVKLVESGGGLVKPGGSLKLSCAASGFSFRNYAMSWVRQSPEKRLEWVAEVSSGGGYTYYPDTVTGRFTISRDNAKNILYLEMSSLRSEDTAMYYCTRDPDSSGYLAWFAYWGQGTLVTVSA VL: DILLTQSPASLSASVGETVTITCRASENINSYLAWYQQKQGKSPQLLVYNAKTLAEGVPSRFSGSGSDTQFSLKINTLQPEDFGTYYCQHHSGTPYTFGGGTKLEIK | binds | no binding (tested: 1 μg/mL) | no binding (tested: 1 μg/mL) | binds |  |  |
| mAb S1E2 (antibody, V domains shown) VH: QMQLQESGPGLVKPSQSLSLTCSVTGYSITSGYYWNWIRQFSGNKLEWMGYINHDGSKNYNPSLKNRISITRDTSKNQFFLKLNSVTTEDTATYYCARDYGSYYYPMDYWGQGTSVTVSS VL: EIVLTQSPPIMSASPGEKVTITCSASSSVTFMHWFQQKPGTSPKLWIFSTSNLASGVPARFSGSGSGTSYSLTISRMEAEDAATYYCQQRSSYPFTFGSGTKLEIK | binds | no binding (tested: 1 μg/mL) | no binding (tested: 1 μg/mL) | binds |  |  |
| S1E2 Fab (Fab, V domains shown) VH: QMQLQESGPGLVKPSQSLSLTCSVTGYSITSGYYWNWIRQFSGNKLEWMGYINHDGSKNYNPSLKNRISITRDTSKNQFFLKLNSVTTEDTATYYCARDYGSYYYPMDYWGQGTSVTVSS VL: EIVLTQSPPIMSASPGEKVTITCSASSSVTFMHWFQQKPGTSPKLWIFSTSNLASGVPARFSGSGSGTSYSLTISRMEAEDAATYYCQQRSSYPFTFGSGTKLEIK |  |  |  |  | binds |  |
| human ephrin-B2 (residues 27-167) (receptor) SIVLEPIYWNSSNSKFLPGQGLVLYPQIGDKLDIICPKVDSKTVGQYEYYKVYMVDKDQADRCTIKKENTPLLNCAKPDQDIKFTIKFQEFSPNLWGLEFQKNKDYYIISTSNGSLEGLDNQEGGVCQTRAMKILMKVGQD |  |  |  |  |  | binding result [7]: binds |
| mAb S2B10 (antibody, V domains shown) VH: QMQLQESGPGLVKPSQSLSLTCTVTGYSITSDYAWNWIRQFPRNKLEWMGFITYSGSTSYNPSLKSRISLTRDTSKNQFFLQLSSVTTEDTATYYCARSGANWDWFAYWGQGTLVTVSA VL: DIQMTQSPASLAVSLGQRATISCRASESVDNYGNSFMHWYQQKPGQPPKLLIYRASKLESGIPARFSGSGSRTDFTLTINPVEADDVATYHCQQSNEDPWTFGGGTKLEIK | binds | no binding (tested: 1 μg/mL) | no binding (tested: 1 μg/mL) | binds |  |  |
| S2B10 Fab (Fab, V domains shown) VH: QMQLQESGPGLVKPSQSLSLTCTVTGYSITSDYAWNWIRQFPRNKLEWMGFITYSGSTSYNPSLKSRISLTRDTSKNQFFLQLSSVTTEDTATYYCARSGANWDWFAYWGQGTLVTVSA VL: DIQMTQSPASLAVSLGQRATISCRASESVDNYGNSFMHWYQQKPGQPPKLLIYRASKLESGIPARFSGSGSRTDFTLTINPVEADDVATYHCQQSNEDPWTFGGGTKLEIK |  |  |  |  | binds |  |
| LN3D3 Fab (Fab, V domains shown) VH: EVKLEESGPELVKPGASVKMSCKASGYTFTNYVMHWVKQKPGQGLEWIGYVNPYNDGTQYNEKFRDKATLTSDKSSSTVYMELNSLTSEDSAVYYCTRGDYPYWVFEVWGAGTTVTVSS VL: EIQMTQSPATLSVTPGDSVSLSCRASQSISNNLHWYQQKSHESPRLLIKYASQSISGIPSRFSGSGSGTDFTLSINNLETEDFGMYFCQHSDSWPFTFGSGTKLEIK |  |  |  |  | binds |  |
| mAb LN3D3 (antibody, V domains shown) VH: EVKLEESGPELVKPGASVKMSCKASGYTFTNYVMHWVKQKPGQGLEWIGYVNPYNDGTQYNEKFRDKATLTSDKSSSTVYMELNSLTSEDSAVYYCTRGDYPYWVFEVWGAGTTVTVSS VL: EIQMTQSPATLSVTPGDSVSLSCRASQSISNNLHWYQQKSHESPRLLIKYASQSISGIPSRFSGSGSGTDFTLSINNLETEDFGMYFCQHSDSWPFTFGSGTKLEIK | binds | no binding (tested: 1 μg/mL) | no binding (tested: 1 μg/mL) | binds |  |  |
